Consider 2 molecules from patent publication US20040019926A1 (CROPDESIGN N V, published 2004).

In assay [1] the target is T1, rice cyclin-dependent kinase Cdc2-Os1 (rice, UniProt P29618 1-294).
T1 construct: The Gal4 parts are not written into the chain
The assay can be described thus: yeast two-hybrid, Cdc2-Os1 in prey pADGal4 with empty pBDGal4. An excerpt: (§1) The interactions of OsICK2 and OsICK4 with Cdc2-Os1 and CycD3-Os (the rice cyclin D3) were verified using a yeast two hybrid approach. In a preliminary step, yeast strain PJ69-4A (MATa trp1-901 leu2-3,112 ura3-52 his3-200 gal4(deleted) gal80(deleted) LYS2::GAL1-HIS3 GAL2-ADE2 met2::GAL7-lacZ) was transformed with Cdc2-Os1 in bait vector pBDGal4 (Stratagene), using the lithium acetate method, well known to those skilled in the art. The rice Cdc2-Os1 was previously obtained by PCR as described in Example 1. The Cdc2-Os1 was also cloned in the pADGal4 prey vector. The junctions between the pBDGal4 binding domain and the pADGal4 activation domain and the Cdc2-Os1 fragment were sequenced to verify correct in-frame fusion.
(§2) Two putative positive clones were identified. A second round of screening on these clones was performed. Pure positive plaques were isolated and phagemids were excised therefrom. Sequencing of the two clones reveiled that the clones were identical with a full length size of 1.7 kb. The clones contain an ORF of 1140 bp encoding a protein of 380 amino acids. This protein is designated cyclin D3 from rice (CycD3-Os). […]
(§3) As positive controls, growth was assessed in yeast containing the prey vector pADGal4 with Cdc2-Os1 and retransformed with the bait vector pBDGal4 containing OsICK2 or CycD3-Os. […]

In assay [2] the target is T2, full-length rice OsICK2 protein (Oryza sativa, UniProt A2X9W8 1-262).
T2 construct: The Gal4 parts are not written into the chain; Form 'mature' here means the full-length protein; also called Os2
T2 sequence: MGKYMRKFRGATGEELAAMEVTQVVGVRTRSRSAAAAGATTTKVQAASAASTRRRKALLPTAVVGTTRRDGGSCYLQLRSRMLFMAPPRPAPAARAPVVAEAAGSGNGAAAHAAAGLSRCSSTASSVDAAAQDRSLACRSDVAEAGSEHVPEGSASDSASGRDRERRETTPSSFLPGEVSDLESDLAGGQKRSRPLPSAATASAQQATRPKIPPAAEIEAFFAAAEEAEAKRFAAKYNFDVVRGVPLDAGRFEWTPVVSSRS
The assay can be described thus: yeast two-hybrid, OsICK2 in prey pADGal4 with empty pBDGal4.
Text: as §1, §2, §3

Assay [3] has as its target T1, rice cyclin-dependent kinase Cdc2-Os1. The assay can be described thus: yeast two-hybrid, Cdc2-Os1 in bait pBDGal4 with empty prey pADGal4.
Text: as §1, §2, §3

The target in assay [4] is T2, full-length rice OsICK2 protein. The assay can be described thus: yeast two-hybrid, OsICK2 in bait pBDGal4 with empty prey pADGal4.
Text: as §1, §2, §3

T1 sequence (P29618 whole entry, the tested form may be a part): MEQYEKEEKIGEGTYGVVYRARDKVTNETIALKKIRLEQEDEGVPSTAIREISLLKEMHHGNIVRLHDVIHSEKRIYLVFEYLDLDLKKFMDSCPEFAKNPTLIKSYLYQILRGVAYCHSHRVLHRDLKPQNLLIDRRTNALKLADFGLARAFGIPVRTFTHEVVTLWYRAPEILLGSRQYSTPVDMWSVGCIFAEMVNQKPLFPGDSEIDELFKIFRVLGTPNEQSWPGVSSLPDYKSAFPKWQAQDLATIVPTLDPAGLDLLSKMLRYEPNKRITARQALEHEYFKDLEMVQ

B1: empty pBDGal4 vector (Gal4 binding domain alone) (other, UniProt P04386 1-148, looked up)
chain: MKLLSSIEQACDICRLKKLKCSKEKPKCAKCLKNNWECRYSPKTKRSPLTRAHLTEVESRLERLEQLFLLIFPREDLDMILKMDSLQDIKALLTGLFVQDNVNKDAVTDRLASVETDMPLTLRQHRISATSSSEESSNKGQRQLTVSI
notes: Negative control in the yeast two-hybrid assay
For the molecule B1, the binding result in assay [1] and in assay [2] was “no binding” each time.

B2: empty prey pADGal4 vector (Gal4 activation domain alone) (other, UniProt P04386 761-881, looked up)
chain: PSALFGGANFNQSGNIADSSLSFTFTNSSNGPNLITTQTNSQALSQPIASSNVHDNFMNNEITASKIDDGNNSKPLSPGWTDQTAYNAFGITTGMFNTTTMDDVYNYLFDDEDTPPNPKKE
notes: as for B1
On to B2, for which the binding result in assay [3] and in assay [4] was “no binding” in each case.
